Results on two substances are retold here after patent publication US10753947B2, “Methods for screening voltage-gated proteins” (D.E. Shaw Research, LLC, priority 2012, dated 2020).

By IC50 is commonly meant the midpoint of a concentration-inhibition curve.

Test [1] concerns the target T1, Kv2.1 (Homo sapiens, UniProt Q14721).
T1 sequence (Q14721 1-858): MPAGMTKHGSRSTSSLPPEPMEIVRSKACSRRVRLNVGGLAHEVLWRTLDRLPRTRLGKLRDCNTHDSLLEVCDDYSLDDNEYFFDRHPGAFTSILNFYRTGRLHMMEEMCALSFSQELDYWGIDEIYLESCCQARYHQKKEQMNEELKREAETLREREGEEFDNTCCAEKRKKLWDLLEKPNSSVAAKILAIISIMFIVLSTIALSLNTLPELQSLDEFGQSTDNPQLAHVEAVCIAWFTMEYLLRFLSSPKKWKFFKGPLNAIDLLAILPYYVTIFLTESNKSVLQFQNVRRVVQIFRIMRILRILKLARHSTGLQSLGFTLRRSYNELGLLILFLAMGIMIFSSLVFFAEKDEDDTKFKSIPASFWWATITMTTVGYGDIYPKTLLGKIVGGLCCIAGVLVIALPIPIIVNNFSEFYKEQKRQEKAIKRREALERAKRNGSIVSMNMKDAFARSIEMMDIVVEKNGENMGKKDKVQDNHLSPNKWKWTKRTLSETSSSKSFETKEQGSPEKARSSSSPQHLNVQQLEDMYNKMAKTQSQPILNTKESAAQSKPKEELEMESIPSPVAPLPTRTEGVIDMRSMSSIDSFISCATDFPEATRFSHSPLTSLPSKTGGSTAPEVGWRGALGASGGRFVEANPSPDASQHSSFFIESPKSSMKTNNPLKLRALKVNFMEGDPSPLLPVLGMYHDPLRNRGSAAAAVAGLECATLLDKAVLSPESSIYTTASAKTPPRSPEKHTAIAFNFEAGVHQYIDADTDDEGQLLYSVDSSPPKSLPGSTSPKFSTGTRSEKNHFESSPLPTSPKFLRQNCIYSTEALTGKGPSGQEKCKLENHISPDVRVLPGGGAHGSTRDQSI
Particulars: cited from earlier work; for IC50: Table 5, read-out: IC50, channel Kv2.1.

Test [2] addresses Shaker (Drosophila melanogaster, UniProt P08510, DUP563-563/L584V/Q583H). To be noted: Table 5; read-out: IC50, channel Shaker; cited from earlier work.
For test [3], the system named is Kv2.1 R300S (R2S). In words: Alpha currents (Iα) of Kv2.1 R2S in Xenopus oocytes, two electrode voltage-clamp. The class given is cell-based, human. To be noted: 1 nM AgTx2, R2S. From the text: The coding cDNAs of KV2.1 “wild-type” (hereinafter WT) base construct (hKv2.1-m7-c3 is human Kv2.1, residues 1-858, mutated to confer AgTx2 sensitivity and to remove extracellular cysteine residues) was synthesized (Entelchon GmbH) and cloned into the high expression vector pBSTA.
Mutations Kv2.1 R294N (hereinafter R0N), Kv2.1 R300S (hereinafter R2S), Kv2.1 R294C/R300S (hereinafter R0C/R2S), Kv2.1 R293S/R294S (hereinafter R-1S/R0S), Kv2.1 R293S/R294C (hereinafter R-1S/R0C), Kv2.1 R293S/R294S/R300S (hereinafter R-1S/R0S/R2S), Kv2.1 R293S/R294C/R300S (hereinafter R-1S/R0C/R2S) were introduced using the QuikChange® Lightning Site-Directed Mutagenesis Kit (Stratagene) with mutagenic primers according to the manufacturer's instructions. All constructs were checked by restriction site mapping and sequencing.
Transcripted cRNA was produced using the mMessage mMachine kit (Ambion Inc.). Two to four days past injection of cRNA into stage V-VI Xenopus oocytes (NASCO) potassium currents through the alpha pore (Iα) were recorded with the two electrode voltage-clamp technique making use of a TURBO TEC-05× amplifier (npi electronic GmbH). Currents were filtered at 10 kHz and sampled at 20 kHz. The bath solution contained (in mM): NaCl 96, KCl 2, CaCl2 1, MgCl2 1 and HEPES 5 (pH 7.5). […]
Background: Two-electrode voltage clamp holds a large cell at a set potential and records current.

Sequence of Shaker (P08510 with tags, fused parts or gaps DUP563-563/Q583H/L584V): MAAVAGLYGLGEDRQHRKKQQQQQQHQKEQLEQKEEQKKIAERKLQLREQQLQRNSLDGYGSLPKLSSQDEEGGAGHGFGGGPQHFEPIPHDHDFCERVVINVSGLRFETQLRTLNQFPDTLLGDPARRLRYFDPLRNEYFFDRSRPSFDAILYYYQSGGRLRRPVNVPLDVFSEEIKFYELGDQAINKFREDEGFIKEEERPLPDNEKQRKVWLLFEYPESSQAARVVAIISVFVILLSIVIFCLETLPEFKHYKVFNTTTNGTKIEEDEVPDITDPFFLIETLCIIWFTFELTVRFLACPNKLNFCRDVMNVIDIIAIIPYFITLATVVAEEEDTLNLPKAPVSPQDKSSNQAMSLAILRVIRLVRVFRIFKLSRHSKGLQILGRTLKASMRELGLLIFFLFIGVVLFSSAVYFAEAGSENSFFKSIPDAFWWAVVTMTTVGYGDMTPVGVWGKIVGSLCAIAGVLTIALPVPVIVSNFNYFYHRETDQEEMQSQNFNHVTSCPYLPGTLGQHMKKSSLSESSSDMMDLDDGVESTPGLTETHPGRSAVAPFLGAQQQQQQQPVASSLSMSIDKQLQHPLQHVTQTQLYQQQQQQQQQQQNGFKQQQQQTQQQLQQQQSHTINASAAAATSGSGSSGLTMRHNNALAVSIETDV

Take “Agitotoxin-2 (GVPINVSCTGSPQCIKPCKDAGMRFGKCMNRKCHCTPK) [AgTx2]”: the figures for the IC50 in test [1] and in test [2] were more than 2000 nM and 0.64 nM, respectively. Besides, in test [1] (text b541), the “Sensitivity of Kv2.1 to the scorpion toxin” value is “insensitive”. Also, in test [3], the “Mean inhibition of the maximal outward current at +60 mV” value is given as 67.8±2.8%.
Take “Guangxitoxin (EGECGGFWWKCGSGKPACCPKYVCSPKWGLCNFPMP) [GxTx-1E]”: the IC50 in test [1] is 2 nM.
